{
  "source": "patent US12031981B2",
  "about": "“Method for electronic detection and quantification of antibodies” (Arizona Board of Regents on behalf of Arizona State …, priority 2018, dated 2024)",
  "molecular_target": "RGD peptide",
  "sequence (P06756 31-889 limits assumed)": "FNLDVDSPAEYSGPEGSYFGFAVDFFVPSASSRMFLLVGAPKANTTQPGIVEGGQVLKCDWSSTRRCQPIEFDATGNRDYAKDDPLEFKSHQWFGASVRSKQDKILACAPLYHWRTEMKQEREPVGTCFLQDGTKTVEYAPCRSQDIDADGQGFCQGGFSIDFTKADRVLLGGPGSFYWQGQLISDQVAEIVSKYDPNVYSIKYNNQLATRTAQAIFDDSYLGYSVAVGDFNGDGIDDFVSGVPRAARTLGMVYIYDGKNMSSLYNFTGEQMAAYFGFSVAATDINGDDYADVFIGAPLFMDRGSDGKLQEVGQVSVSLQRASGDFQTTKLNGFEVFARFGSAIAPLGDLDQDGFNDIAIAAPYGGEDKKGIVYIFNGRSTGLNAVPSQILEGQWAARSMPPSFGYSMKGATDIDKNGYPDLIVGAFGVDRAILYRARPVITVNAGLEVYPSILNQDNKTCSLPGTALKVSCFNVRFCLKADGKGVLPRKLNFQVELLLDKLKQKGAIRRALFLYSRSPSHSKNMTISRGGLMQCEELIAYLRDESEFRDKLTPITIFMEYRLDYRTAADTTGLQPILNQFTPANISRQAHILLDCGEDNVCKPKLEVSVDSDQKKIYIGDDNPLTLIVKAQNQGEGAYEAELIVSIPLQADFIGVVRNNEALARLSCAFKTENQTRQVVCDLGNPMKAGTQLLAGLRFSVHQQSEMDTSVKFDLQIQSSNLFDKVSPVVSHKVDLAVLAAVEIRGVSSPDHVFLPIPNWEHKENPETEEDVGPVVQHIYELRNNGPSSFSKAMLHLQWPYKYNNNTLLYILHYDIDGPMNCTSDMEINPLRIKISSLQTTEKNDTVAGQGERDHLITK",
  "sequence (P06756 891-1048 partner limits assumed)": "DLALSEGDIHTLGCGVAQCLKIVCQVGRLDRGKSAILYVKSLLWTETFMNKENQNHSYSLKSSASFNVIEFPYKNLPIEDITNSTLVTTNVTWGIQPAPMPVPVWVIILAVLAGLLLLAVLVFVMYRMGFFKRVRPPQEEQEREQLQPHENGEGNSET",
  "sequence (P05106 27-788, further chain)": "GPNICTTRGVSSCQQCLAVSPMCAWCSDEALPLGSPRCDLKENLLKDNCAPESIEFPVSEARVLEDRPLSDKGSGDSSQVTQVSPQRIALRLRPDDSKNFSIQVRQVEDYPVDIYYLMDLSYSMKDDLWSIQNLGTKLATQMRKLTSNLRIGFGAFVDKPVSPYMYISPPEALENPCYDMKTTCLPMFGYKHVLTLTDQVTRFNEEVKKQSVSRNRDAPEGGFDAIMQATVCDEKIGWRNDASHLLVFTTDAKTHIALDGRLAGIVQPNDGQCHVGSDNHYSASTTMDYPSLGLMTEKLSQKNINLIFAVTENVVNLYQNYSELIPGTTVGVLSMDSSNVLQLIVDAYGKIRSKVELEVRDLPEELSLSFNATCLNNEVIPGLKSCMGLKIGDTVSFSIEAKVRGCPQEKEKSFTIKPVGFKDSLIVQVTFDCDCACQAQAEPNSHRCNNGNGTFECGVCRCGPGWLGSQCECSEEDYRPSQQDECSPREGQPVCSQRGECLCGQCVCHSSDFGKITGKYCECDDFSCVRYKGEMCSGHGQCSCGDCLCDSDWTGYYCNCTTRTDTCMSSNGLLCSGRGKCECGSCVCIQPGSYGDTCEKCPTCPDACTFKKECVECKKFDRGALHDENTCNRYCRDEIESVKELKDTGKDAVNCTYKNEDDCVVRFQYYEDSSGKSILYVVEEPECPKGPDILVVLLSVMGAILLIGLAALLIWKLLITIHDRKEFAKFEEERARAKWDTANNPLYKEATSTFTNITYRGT",
  "test": "Single molecule conductance of integrin binding RGD peptide on electrodes",
  "settings": "one ligand binding site",
  "data": [
    {"substance": "Integrin: αvβ3 integrin binding RGD peptide; only one ligand binding site", "values": [
      {"measurement": "conductance G, single peak of distribution", "value": 0.3, "unit": "nS"}
    ]}
  ]
}
